Results as given in US20160184454A1, “RAB7L1 INTERACTS WITH LRRK2 TO MODIFY INTRANEURONAL PROTEIN SORTING AND PARKINSON'S DISEASE RISK” (THE TRUSTEES OF COLUMBIA UNIVERSITY IN THE CITY OF NEW YORK, priority 2013, published 2016).

What was measured:
[1] = target: T1, human wild-type LRRK2 (BAC transgene, mouse brain) (human, UniProt Q5S007 1-2527); assay: immunoprecipitation of LRRK2 with a rabbit monoclonal antibody from transgenic mouse brain lysates, Western blot for RAB7L1
T1 construct: Untagged human LRRK2 expressed from a BAC construct in transgenic mice; It was immunoprecipitated from whole brain lysate with an anti-LRRK2 antibody; The lysate also holds endogenous mouse LRRK2; also called LRRK2 wild type transgenic (WT); LRRK2-WT
T1 sequence (Q5S007 whole entry R50H): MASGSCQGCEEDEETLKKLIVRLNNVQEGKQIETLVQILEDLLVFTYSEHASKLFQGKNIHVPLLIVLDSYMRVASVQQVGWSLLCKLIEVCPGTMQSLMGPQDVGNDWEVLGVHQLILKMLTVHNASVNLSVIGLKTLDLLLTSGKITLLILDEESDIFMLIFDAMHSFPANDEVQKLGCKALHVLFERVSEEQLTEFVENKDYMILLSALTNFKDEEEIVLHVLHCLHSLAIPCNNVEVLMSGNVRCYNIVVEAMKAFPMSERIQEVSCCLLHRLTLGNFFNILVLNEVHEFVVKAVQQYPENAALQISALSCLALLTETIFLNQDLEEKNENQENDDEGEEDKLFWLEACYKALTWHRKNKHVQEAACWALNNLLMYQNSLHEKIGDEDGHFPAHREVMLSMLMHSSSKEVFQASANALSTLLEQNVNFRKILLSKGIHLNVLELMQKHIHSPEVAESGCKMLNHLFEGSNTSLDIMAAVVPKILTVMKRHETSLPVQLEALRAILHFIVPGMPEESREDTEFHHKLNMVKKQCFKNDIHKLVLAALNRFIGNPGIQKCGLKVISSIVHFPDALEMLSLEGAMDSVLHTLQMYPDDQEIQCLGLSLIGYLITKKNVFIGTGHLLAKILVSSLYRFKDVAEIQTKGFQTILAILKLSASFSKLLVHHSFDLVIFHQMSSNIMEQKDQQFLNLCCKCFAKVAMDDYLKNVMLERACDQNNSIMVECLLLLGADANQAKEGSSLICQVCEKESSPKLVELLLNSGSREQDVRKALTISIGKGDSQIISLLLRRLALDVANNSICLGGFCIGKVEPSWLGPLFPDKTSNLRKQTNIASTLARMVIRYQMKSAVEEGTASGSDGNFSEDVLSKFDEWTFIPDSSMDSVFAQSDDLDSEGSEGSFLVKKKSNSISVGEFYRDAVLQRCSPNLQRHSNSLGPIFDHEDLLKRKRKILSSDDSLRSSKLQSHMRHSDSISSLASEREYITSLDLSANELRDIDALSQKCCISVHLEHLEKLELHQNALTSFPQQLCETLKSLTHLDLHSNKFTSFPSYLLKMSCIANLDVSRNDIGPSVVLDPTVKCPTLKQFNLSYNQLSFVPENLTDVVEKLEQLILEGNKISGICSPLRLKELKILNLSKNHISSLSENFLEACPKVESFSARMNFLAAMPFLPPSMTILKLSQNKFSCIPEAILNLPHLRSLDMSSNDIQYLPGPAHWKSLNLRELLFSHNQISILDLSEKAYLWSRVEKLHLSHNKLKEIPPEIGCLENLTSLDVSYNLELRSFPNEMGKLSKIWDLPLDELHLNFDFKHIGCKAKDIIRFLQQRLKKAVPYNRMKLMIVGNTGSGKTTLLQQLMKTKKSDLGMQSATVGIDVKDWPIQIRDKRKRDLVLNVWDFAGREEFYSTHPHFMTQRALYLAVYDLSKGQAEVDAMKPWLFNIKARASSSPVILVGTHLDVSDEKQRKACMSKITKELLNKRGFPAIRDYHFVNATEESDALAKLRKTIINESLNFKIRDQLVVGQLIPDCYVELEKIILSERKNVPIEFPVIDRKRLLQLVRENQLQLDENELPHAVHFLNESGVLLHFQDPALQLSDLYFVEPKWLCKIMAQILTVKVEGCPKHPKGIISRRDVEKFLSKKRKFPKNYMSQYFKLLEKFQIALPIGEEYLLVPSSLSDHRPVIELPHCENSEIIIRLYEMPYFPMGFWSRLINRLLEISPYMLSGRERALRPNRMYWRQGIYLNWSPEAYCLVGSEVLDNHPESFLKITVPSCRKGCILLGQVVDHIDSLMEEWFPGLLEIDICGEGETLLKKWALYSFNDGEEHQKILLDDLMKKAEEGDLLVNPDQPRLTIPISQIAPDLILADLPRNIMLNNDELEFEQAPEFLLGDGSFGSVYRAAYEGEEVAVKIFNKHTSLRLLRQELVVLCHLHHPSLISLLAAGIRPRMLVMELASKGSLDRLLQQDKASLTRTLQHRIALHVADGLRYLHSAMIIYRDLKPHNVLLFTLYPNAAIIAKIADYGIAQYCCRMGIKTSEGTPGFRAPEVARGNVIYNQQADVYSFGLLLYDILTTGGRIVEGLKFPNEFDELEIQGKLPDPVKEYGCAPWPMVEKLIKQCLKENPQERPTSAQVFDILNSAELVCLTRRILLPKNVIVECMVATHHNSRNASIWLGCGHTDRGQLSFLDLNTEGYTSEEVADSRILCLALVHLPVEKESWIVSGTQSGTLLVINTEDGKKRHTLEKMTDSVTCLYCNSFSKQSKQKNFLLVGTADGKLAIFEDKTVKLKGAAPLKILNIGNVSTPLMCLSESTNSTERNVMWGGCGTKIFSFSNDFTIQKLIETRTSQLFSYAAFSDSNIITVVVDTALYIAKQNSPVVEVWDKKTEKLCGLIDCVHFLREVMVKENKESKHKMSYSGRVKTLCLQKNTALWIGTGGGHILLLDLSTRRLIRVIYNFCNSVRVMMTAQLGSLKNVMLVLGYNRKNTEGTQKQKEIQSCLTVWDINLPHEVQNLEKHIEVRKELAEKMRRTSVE

[2] = system: primary rat cortical neurons; assay: MPR sorting / colocalization analysis (Golph4, LAMP2, EEA1) in primary neurons; type: cell-based; settings: in the context of LRRK2 G2019S expression
Text: A cellular role for the LRRK2-RAB7L1 pathway was investigated. Prior studies have broadly implicated both of these gene products in intracellular sorting (Sakaguchi-Nakashima et al., 2007; Spano et al., 2011). Expression of the LRRK2 G2019S clinical mutation in rat primary neurons induced lysosomal swelling, as quantified by immunostaining for the lyosomal marker LAMP2 or using the lysosomotropic dye Lysotracker, consistent with prior work and other studies (Dodson et al., 2012; MacLeod et al., 2006; Stafa et al., 2012) (FIG. 6A). In addition to lysosomal enlargement, there was significant reduction in lysosomal accumulation of the cation-independent mannose 6-phosphate receptor (MPR) in terms of the fraction of LAMP2-positive structures stained with MPR. As MPR is required also for the recruitment of lysosomal hydrolases, its deficiency is predicted to lead to functional lysosomal deficits.
MPR is typically recycled between the endolysosome compartment and the Golgi apparatus by the retromer complex (Arighi et al., 2004; Bonifacino and Hurley, 2008; Seaman, 2009; St. George-Hyslop et al., 2009). […]
Primary rat cortical neurons were cultured on glass coverslips, transfected, and fixed as previously described in this methods section. […] Images were analysed using NIH ImageJ software version 1.45.

[3] = system: rat primary cortical neurons; assay: Neurite length assay in transfected primary cortical neuron cultures; type: cell-based; settings: for LRRK2 mutation-induced neurite length phenotype: co-transfection with LRRK2 G2019S (0.5 μg/well), test vector 1 μg/well
Text: As 5 candidate genes are present within the PARK16 locus (SLC45A3, NUCKS, RAB7L1, SLC41A1, and PM20D1), each of the genes were experimentally screened for a functional interaction with LRRK2 (FIG. 2A). A previously-described primary rat neuron in vitro culture model was used, in which transient expression of familial PD-associated LRRK2 G2019S or R1441C mutant alleles leads to a marked reduction in neurite process length (MacLeod et al., 2006). […] RAB7L1 is a small cytosolic GTPase, structurally distinct from RAB7 despite its name (also known as RAB29) (Shimizu et al., 1997). […] But the function of RAB7L1 in CNS neurons remains unknown. Orthologues of RAB7L1 in other organisms, including C. elegans Glo-1 and Drosophila melanogaster Lighloid, have been implicated in trafficking to lysosome-related organelles (Hermann et al., 2005) and in the regulation of neurite process length (Grill et al., 2007), reminiscent of LRRK2 mutant phenotypes (MacLeod et al., 2006). Thus this gene was of particular interest.
Sprague-Dawley rat or mouse PI primary dissociated cortical cultures were prepared and transfected essentially as described (Xia et al., 1996) with the following modifications: cells were plated at high density, approximately 250,000 cells/cm2, in 24-well plates with 500 ul medium/well. Culture medium used for plating cells was Neurobasal-A supplemented with 2% B-27 and 10% FBS. At 1 day after plating, medium was changed to reduced serum (1% FBS+added antimitotic agents: 70 μM uridine and 25 μM 5-fluorodeoxyuridine) and replaced weekly thereafter; for transfections no DMSO was added to the transfection mixture, cells were not subjected to glycerol shock, and a total of 3 μg plasmid DNA was used per well. Cells were fixed in 4% PFA and immunostained with mouse α-RAB7L1 (Santa Cruz, 1:100), and rabbit monoclonal α-LRRK2 (Michal J. Fox Foundation MJFF4, 1:100), then with appropriate fluorescent secondaries (Jackson, 1:1000-2000). Neurite length and neurite puncta (defined as swellings greater than 2 um in diameter) were counted for at least 20 neurons per condition. Mean puncta number per neuron was normalized to total average neurite length versus wild-type LRRK2 transfected cells. Fluorescent microscopy was performed using a Nikon TE 2000-S microscope and a Zeiss LSM510 Meta confocal microscope. Images were analyzed using Image-Pro Plus (Mediacybernetics) software version 5.1.0.20.

LRRK2 = target: T2, LRRK2 (Homo sapiens, UniProt Q5S007); assay: Co-immunoprecipitation of LRRK2 and RAB7L1 from transfected HEK293T cells; type: binding; settings: HEK293T lysates, 3×Flag-LRRK2 and GFP-RAB7L1, 48 hrs
T2 construct: Plasmids encoding full-length human LRRK2 (wild-type, G2019S, K1906M) tagged with 3×FLAG at the N-terminus were used; expressed in transfected cells; host or cells: HEK293T
Experimental: Next more direct evidence of a physical interaction between LRRK2 and RAB7L1 was sought and thus co-immunoprecipitation studies were performed. Epitope-tagged forms of LRRK2 and RAB7L1 (3×Flag-LRRK2 and GFP-RAB7L1) were co-transfected into HEK293T cells, and after 48 hrs, cell lysates were immunoprecipitated with an anti-Flag antibody and then probed for RAB7L1. […] Similarly, immunoprecipitation of RAB7L1 with an antibody to the GFP tag co-precipitated LRRK2 only in the presence of RAB7L1-GFP (FIG. 3B). To probe for an interaction between LRRK2 and RAB7L1 in a more physiological context, RAB7L1 protein was examined in brain lysates from transgenic mice that harbor human wild-type LRRK2 or a familial PD mutant form of LRRK2, R1441C, within a large bacterial artificial chromosome (BAC) construct. Transgenic LRRK2 is broadly expressed throughout the CNS of these mice, although at relatively low levels (FIG. 10A). Brain tissue lysates were immunoprecipitated for LRRK2 protein with a rabbit monoclonal antibody.
For cultured cells, HEK293T cells transfected for 48 hours were lysed with lysis buffer containing 0.5% Triton-X. 1 mM EDTA and protease inhibitor cocktail (Sigma). The lysates were rotated at 4° C. for 1 hr followed by centrifugation at 20,000 g for 5 min. […]

[4] = system: Drosophila dopamine neurons; assay: Surviving dopaminergic neurons in PPM1 and PPL1 clusters of Drosophila CNS mushroom bodies; type: in vivo; settings: co-expression with LRRK2 G2019S

Row | binding result [1] | co-immunoprecipitation with LRRK2 (LRRK2) | Molecule | lysosomal phenotypes (swollen lysosomes, reduced lysosomal MPR) [2] | LRRK2 mutation-induced neurite length phenotype [3] | reduced neurite length ([3]; in the context of VPS35 knockdown by shRNA) | neurite length ([3]; in the context of overexpression of wild-type LRRK2) | LRRK2 G2019S dopamine neuron loss phenotype [4]
1 | binds | effectively co-precipitated | RAB7L1 protein in mouse brain lysate (endogenous) (enzyme, UniProt Q91YQ1 1-204, looked up, Detected by Western blot (Santa Cruz sc-81924) after LRRK2 immunoprecipitation) MGSRDHLFKVLVVGDAAVGKTSLVQRYSQDSFSKHYKSTVGVDFALKVLQWSDSEMVRLQLWDIAGQERFTSMTRLYYRDASACVIMFDVTNATTFSNSQRWKQDLDSKLTLPSGEPVPCLLLANKSDLSPWAVSRDQIDRFSKENGFTGWTETSVKENKNINEAMRVLVEKMMNNSREDVMSLSTQGNYINLQAKPSSGWTCC | suppressed the lysosomal phenotypes | significantly suppressed the LRRK2 mutation-induced neurite length phenotype | not rescued | did not modify neurite length | –
2 | – | – | CA RAB7L1: constitutively active RAB7L1 (Q67L, deficient in GTPase activity); in b298 the same words denote the fly transgene (protein, UniProt O14966 1-203, looked up, variant Q67L) Ras-related protein Rab-7L1: MGSRDHLFKVLVVGDAAVGKTSLVQRYSQDSFSKHYKSTVGVDFALKVLQWSDYEIVRLQLWDIAGLERFTSMTRLYYRDASACVIMFDVTNATTFSNSQRWKQDLDSKLTLPNGEPVPCLLLANKCDLSPWAVSRDQIDRFSKENGFTGWTETSVKENKNINEAMRVLIEKMMRNSTEDIMSLSTQGDYINLQTKSSSWSCC | – | significantly suppressed | – | – | rescued the LRRK2 G2019S dopamine neuron loss phenotype
